In patent US20090016967A1:

Molecular target: IGF-1 receptor (IGF-1R) on primary mouse lung fibroblasts / in mouse lung (mouse) (UniProt Q60751)
Assay: cell-based or functional assay

Chain of IGF-1 receptor (IGF-1R) on primary mouse lung fibroblasts / in mouse lung (mouse) (Q60751 31-1373): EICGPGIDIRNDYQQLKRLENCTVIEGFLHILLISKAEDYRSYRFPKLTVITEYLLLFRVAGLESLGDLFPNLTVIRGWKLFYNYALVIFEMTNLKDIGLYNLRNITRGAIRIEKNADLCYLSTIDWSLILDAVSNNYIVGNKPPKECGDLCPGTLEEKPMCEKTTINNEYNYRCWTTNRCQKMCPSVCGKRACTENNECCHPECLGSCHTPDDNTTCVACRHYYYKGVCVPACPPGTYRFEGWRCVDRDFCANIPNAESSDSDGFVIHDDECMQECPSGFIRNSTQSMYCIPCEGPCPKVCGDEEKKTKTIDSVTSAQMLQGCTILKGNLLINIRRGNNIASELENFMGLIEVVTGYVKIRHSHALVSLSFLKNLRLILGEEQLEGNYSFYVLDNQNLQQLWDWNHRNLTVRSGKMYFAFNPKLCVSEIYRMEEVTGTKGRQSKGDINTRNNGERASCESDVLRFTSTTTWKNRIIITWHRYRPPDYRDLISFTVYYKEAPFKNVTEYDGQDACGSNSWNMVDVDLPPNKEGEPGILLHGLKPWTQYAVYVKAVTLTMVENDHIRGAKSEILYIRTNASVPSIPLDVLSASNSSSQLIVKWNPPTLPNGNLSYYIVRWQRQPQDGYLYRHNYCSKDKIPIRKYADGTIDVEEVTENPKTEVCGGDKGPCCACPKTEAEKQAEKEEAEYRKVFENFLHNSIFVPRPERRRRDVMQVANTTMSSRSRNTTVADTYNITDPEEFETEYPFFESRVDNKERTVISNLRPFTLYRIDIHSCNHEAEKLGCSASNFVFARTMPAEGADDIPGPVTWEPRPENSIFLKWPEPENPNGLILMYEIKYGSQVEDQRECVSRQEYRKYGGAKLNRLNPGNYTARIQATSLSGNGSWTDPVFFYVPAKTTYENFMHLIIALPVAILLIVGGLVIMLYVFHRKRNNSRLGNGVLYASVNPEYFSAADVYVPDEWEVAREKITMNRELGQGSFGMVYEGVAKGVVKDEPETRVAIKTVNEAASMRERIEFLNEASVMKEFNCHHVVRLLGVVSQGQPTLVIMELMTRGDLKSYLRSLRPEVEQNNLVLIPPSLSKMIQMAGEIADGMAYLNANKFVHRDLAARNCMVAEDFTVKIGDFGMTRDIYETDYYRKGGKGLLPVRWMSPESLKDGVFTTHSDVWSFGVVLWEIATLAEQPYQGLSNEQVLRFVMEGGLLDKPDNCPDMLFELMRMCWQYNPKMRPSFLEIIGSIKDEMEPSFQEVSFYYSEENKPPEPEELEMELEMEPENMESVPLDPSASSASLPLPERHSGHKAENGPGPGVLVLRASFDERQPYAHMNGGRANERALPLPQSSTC

## IGF-1 (R&D Systems) (ligand)
  migration of mouse lung fibroblasts (transwell): 1.8 fold
